Consider four molecules from PMC7000732, “Bridging non-overlapping reads illuminates high-order epistasis between distal protein sites in a GPCR” (Nature Communications, 2020).

One data set relates to A2aR W246Y. Conditions: cited from earlier work.
Data set [1] addresses A2aR suspended in bovine striatal membranes. Details: method as in earlier work. Conditions: literature value; cited from earlier work.
On the set-up of data set [2]: method as in doi:10.1016/0584-8539(95)01421-P. As to conditions: cited from earlier work.
The nature of data set [3]: FACS-based screen of A2aR library with deep sequencing (BRIDGE): variant enrichment. The format is cell-based, Saccharomyces cerevisiae.
The nature of data set [4]: Fluorescent ligand binding measured by flow cytometry. As to conditions: for fluorescent ligand binding signal: Supplementary Figure 4 source data, replicates, listed as pYC A2a10H (Q89A). Set-up: species or system Saccharomyces cerevisiae. For orientation: In flow cytometry, cells or beads pass a laser one at a time.
The nature of data set [5]: Whole-cell saturation radioligand binding. As to conditions: for CPM: raw replicate counts, empty vector not subtracted. Set-up: species or system Saccharomyces cerevisiae.

Several values for one entry are separate records, joined by “and”; a condition that tells them apart may be missing. Equal entries are not always repeated.

For `CCNC(=O)[C@H]1O[C@@H](n2cnc3c(N)nc(NCCc4ccc(CCC(=O)O)cc4)nc32)[C@H](O)[C@@H]1O` [CGS21680], in the data set on A2aR W246Y, the “potency of the agonist” value is on record as “comparable to that of the wild-type receptor”.
Take `CCNC(=O)[C@H]1O[C@@H](n2cnc3c(N)nc(NCCc4ccc(CCC(=O)NCCNC(=S)Nc5ccc6c(c5)C(=O)OC65c6ccc(O)cc6Oc6cc(O)ccc65)cc4)nc32)[C@H](O)[C@@H]1O` [FITC-APEC]: the Kd – broadly, a measure of binding affinity in units of concentration – in data set [1] is 57 nM.
Turning to `O=C1OC2(c3ccc(O)cc3Oc3cc(O)ccc32)c2ccccc21` [Fluorescein], in data set [2], the “pKa of the dianion” value is recorded as 6.43.

B1: TAWLH: single-residue mutant Q89A of A2aR, positive control reported to exhibit improved binding affinity to NECA (protein, UniProt P29274 1-412, looked up, variant Q89A)
Adenosine receptor A2a: MPIMGSSVYITVELAIAVLAILGNVLVCWAVWLNSNLQNVTNYFVVSLAAADIAVGVLAIPFAITISTGFCAACHGCLFIACFVLVLTASSIFSLLAIAIDRYIAIRIPLRYNGLVTGTRAKGIIAICWVLSFAIGLTPMLGWNNCGQPKEGKNHSQGCGEGQVACLFEDVVPMNYMVYFNFFACVLVPLLLMLGVYLRIFLAARRQLKQMESQPLPGERARSTLQKEVHAAKSLAIIVGLFALCWLPLHIINCFTFFCPDCSHAPLWLMYLAIVLSHTNSVVNPFIYAYRIREFRQTFRKIIRSHVLRQQEPFKAAGTSARVLAAHGSDGEQVSLRLNGHPPGVWANGSAPHPERRPNGYALGLVSGGSAQESQGNTGLPDVELLSHELKGVCPEPPGLDDPLAQDGAGVS
modifications: decahistidine tag
On to B1, for which the Enrichment rate in data set [3] (naive to PS4 library (PS4/naive), high-stringency gating, 10 µM FITC-APEC) is 149; in data set [3] (naive to PS4 population), 149 fold. Further, in data set [3] (naive to PS4 library, WT rate 0.30), the “Fold increase in enrichment rate over WT” value is 497 fold. Besides, the “fluorescent ligand binding, result in words” value in data set [4] (FITC-APEC, yeast cells) is given as “improved binding affinity”. For the same molecule, the “fluorescent ligand binding signal” value was 102 and 104 and 101 in data set [4] ([FITC-APEC] 10 nM); 132 and 133 and 147 in data set [4] ([FITC-APEC] 100 nM); 298 and 308 and 303 in data set [4] ([FITC-APEC] 1000 nM); 368 and 357 and 377 in data set [4] ([FITC-APEC] 10000 nM); 430 and 460 and 408 in data set [4] ([FITC-APEC] 50000 nM). In addition, the Kd in data set [5] (3H-NECA, whole yeast cells, pH 5.8, mean ± SD of three biological replicates, read-out: equilibrium dissociation constant (Kd)) came out at 9.9 ± 0.4 nM. Besides, the CPM in data set [5] ([3H-NECA] 1.6 nM) was 224 CPM and 211 CPM and 240 CPM; in data set [5] ([3H-NECA] 3.1 nM), 450 CPM and 470 CPM and 429 CPM; in data set [5] ([3H-NECA] 6.3 nM), 719 CPM and 702 CPM and 640 CPM; in data set [5] ([3H-NECA] 12.5 nM), 1084 CPM and 978 CPM and 892 CPM; in data set [5] ([3H-NECA] 25 nM), 1238 CPM and 1266 CPM and 1270 CPM; in data set [5] ([3H-NECA] 50 nM) it was 1460 CPM and 1383 CPM and 1357 CPM. Also, the CPM in data set [5] ([3H-NECA] 100 nM) is 1834 CPM and 1782 CPM and 1547 CPM; in data set [5] ([3H-NECA] 200 nM) it was 2245 CPM and 2197 CPM and 2158 CPM; in data set [5] ([3H-NECA] 400 nM) it was 2884 CPM and 2262 CPM and 2852 CPM. The “fold greater 3H-NECA binding affinity than wild-type receptor” value in data set [5] (ratio of Kd to wild-type) was “fourfold”.
